Experimental data reported in US12139520B2 (priority 2020, dated 2024).
Numbered stars: 1 amine (or outer) side, 2 acyl side, 3 side chain; on linkers, the order of the positions; unused ones are H or OH. Bridge positions count the residues as written; N and C are the ends. Square brackets hold non-standard residues; d marks the D form. Side chains are listed from the residue outwards. Ends that are not written are not given here. * marks the point of attachment. C20 diacid = O=C(O)CCCCCCCCCCCCCCCCCCC(=O)*; γGlu = O=C(O)[C@H](CCC(=O)[*:2])N[*:1]; Hyp = O=C(O)[C@@H]1C[C@@H](O)CN1; NMeI = CC[C@H](C)[C@H](NC)C(=O)O; Aad = N[C@@H](CCCC(=O)O)C(=O)O; AEEA = NCCOCCOCC(=O)O; Sar = CNCC(=O)O

T1: hAMY3R (human, UniProt P30988)
T1 sequence 1: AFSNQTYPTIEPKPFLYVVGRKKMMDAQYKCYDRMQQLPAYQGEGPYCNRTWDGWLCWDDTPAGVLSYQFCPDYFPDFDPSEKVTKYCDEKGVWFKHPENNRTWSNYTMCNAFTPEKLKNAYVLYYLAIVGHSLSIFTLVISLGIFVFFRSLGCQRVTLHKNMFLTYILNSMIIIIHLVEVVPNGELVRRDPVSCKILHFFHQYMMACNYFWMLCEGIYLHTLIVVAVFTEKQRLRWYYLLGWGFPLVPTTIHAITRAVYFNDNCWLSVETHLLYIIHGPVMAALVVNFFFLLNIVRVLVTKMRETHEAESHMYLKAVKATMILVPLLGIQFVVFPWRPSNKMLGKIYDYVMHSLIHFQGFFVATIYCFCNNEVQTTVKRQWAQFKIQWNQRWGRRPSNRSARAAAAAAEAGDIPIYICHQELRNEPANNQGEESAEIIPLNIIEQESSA
T1 sequence 2: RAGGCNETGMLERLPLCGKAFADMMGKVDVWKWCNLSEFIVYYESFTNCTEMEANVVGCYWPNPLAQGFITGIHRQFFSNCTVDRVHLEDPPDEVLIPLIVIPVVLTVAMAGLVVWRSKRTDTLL


Legend:
hAM1R = hAM1R (human, UniProt Q16602); assay: cell-based or functional assay
hAMY3R = molecular target: T1, hAMY3R; assay: cell-based or functional assay

hAM1R EC50 (cAMP) (hAM1R) [nM] | hAMY3R EC50 (cAMP) (hAMY3R) [nM] | Binder
63.8 | 0.012 | {C20 diacid-γGlu}-KCNTATCTVERLAHQIYQFTDKDKDNVAPPTNVGSNG[Hyp]-NH2 (disulfide 2-7 (inferred); ends not checked) [SEQ ID NO: 55]
255 | 0.013 | {C20 diacid-γGlu}-KCNFATCTVQRLAHQIYQFTDKDKDNVAPPTEVGSNG[Hyp]-NH2 (disulfide 2-7 (inferred); not fully specified; ends not checked) [SEQ ID NO: 68]
> 5000 | 0.006 | {C20 diacid-γGlu}-KCNTATCTVQRLADQIYQFTDKDKDNVAPPTNVGSNG[Hyp]-NH2 (disulfide 2-7 (inferred); ends not checked) [SEQ ID NO: 5]
> 5000 | 0.012 | {C20 diacid-γGlu}-KCNTATCTVQRLAEQIYQFTDKDKDNVAPPTAVGSNG[Hyp]-NH2 (disulfide 2-7 (inferred); not fully specified; ends not checked) [SEQ ID NO: 63]
> 5000 | 0.012 | KCNTATCATQRLANFLVHSSNNFGAILSSTKVGSNTY [SEQ ID NO: 58]
> 5000 | 0.012 | KCNTATCATQRLANFLVHSSNNFGAILPSTKVGSNGY [SEQ ID NO: 59]
> 5000 | 0.013 | KCNTATCTVQRLAK([AEEA-AEEA-γGlu-C20 diacid])QIYQFTDKDKDNVAPPTNVGSNG[Hyp]-NH2 (disulfide 2-7 (inferred); not fully specified; ends not checked) [SEQ ID NO: 74]
> 5000 | 0.013 | {C20 diacid-γGlu}-KCNTATCTVQRLAHQIAQYTDKDKDNVAPPTNVGSNG[Hyp]-NH2 (disulfide 2-7 (inferred); not fully specified; ends not checked) [SEQ ID NO: 71]
> 5000 | 0.011 | KCNTATCTVQRLAHQIYQFTDKDKDAVAPPTNVGSNG[Hyp]-NH2 (disulfide 2-7 (inferred); ends not checked) [SEQ ID NO: 52]
116 | 0.013 | {C20 diacid-γGlu}-KCNFATCTVQRLAHQIYQFTDKDKDNVAPRTEVGSNG[Hyp]-NH2 (disulfide 2-7 (inferred); not fully specified; ends not checked) [SEQ ID NO: 67]
> 5000 | 0.012 | KCNTATCTVQRLAHQIYQFTDADKDNVAPPTNVGSNG[Hyp]-NH2 (disulfide 2-7 (inferred); ends not checked) [SEQ ID NO: 64]
680 | 0.013 | {C20 diacid-γGlu}-KCNTATCTVQRLAHQIAQFTDKDKDNVAPPTNVGSNS[Hyp]-NH2 (disulfide 2-7 (inferred); not fully specified; ends not checked) [SEQ ID NO: 69]
> 5000 | 0.011 | {C20 diacid-γGlu}-KCNTATCTVQRLAEQIYQFTDKDKDNVAPPTNVGSNG[Hyp]-NH2 (disulfide 2-7 (inferred); ends not checked) [SEQ ID NO: 51]
> 5000 | 0.012 | KCNTATCTVQRLAHQIYQFDKDKDNVAPPTNVGSNG[Hyp]-NH2 (disulfide 2-7 (inferred); ends not checked) [SEQ ID NO: 65]
> 5000 | 0.012 | {C20 diacid-γGlu}-KCNTATCTVQRLAHQIYQFTDKDKDNVAPPTKVGSNG[Hyp]-NH2 (disulfide 2-7 (inferred); not fully specified; ends not checked) [SEQ ID NO: 60]
> 5000 | 0.006 | KCNTATCTVQRLAAQIYQFTDKDKDNVAPPTNVGSNG[Hyp]-NH2 (disulfide 2-7 (inferred); ends not checked) [SEQ ID NO: 7]

hAM1R EC50 (cAMP) (hAM1R) [nM] | hAMY3R EC50 (cAMP) (hAMY3R) [nM] | Binder
> 5000 | 0.012 | {C20 diacid-γGlu}-KCNTSTCTVQRLAHQIAQFTDKDKDNVAPPTNVGSNG[Hyp]-NH2 (disulfide 2-7 (inferred); not fully specified; ends not checked) [SEQ ID NO: 62]
> 5000 | 0.014 | {C20 diacid-γGlu}-RCGTATCATERLA[Aad]FLQRSSF[Sar]A[NMeI]LSSTEVGSNT[Hyp]-NH2 (disulfide 2-7 (inferred); not fully specified; ends not checked) [SEQ ID NO: 76]
> 5000 | 0.006 | KCNTSTCTVARLADQITQFSNKDKAQVSPPTEVGPNS[Hyp]-NH2 (disulfide 2-7 (inferred); ends not checked) [SEQ ID NO: 8]
> 5000 | 0.013 | {C20 diacid-γGlu}-KCNTATCTVQRLAEQIYQFTDKDKDNVAPPTQVGSNG[Hyp]-NH2 (disulfide 2-7 (inferred); not fully specified; ends not checked) [SEQ ID NO: 73]
> 5000 | 0.006 | KCNTATCTVQRLAEQIYQFTDKDKDNVAPPTNVGSK([AEEA-AEEA-γGlu-C20 diacid])G[Hyp]-NH2 (disulfide 2-7 (inferred); ends not checked) [SEQ ID NO: 6]
> 5000 | 0.012 | KCNTATCTVQRLAEQIYQFTDKDKDNVSPPTNVGSNG[Hyp]-NH2 (disulfide 2-7 (inferred); ends not checked) [SEQ ID NO: 66]
590 | 0.012 | {C20 diacid-γGlu}-KCNTATCTVQRLAHQIYQFSDKDKDNVAPPTNVGSNG[Hyp]-NH2 (disulfide 2-7 (inferred); ends not checked) [SEQ ID NO: 57]
46.2 | 0.012 | GCRFGTCTVQRLAHFLYQFTDKDKDNVAPRTNVGPQGY [SEQ ID NO: 54]
103 | 0.012 | GCRFGTCTVQRLAHFLYQFTDKDKDNVAPRTNVGSNTY [SEQ ID NO: 56]
> 5000 | 0.013 | KCQTATCTVQRLAEQIYQFTDKDKDNVAPPTNVGSNGX (not fully specified; C20DA-yGlu at N-terminal; Hyp at X38) [SEQ ID NO: 72]
> 5000 | 0.012 | {C20 diacid-γGlu}-KCNTATCTVQRLAHQIAQFTDKDKDNVAPPTNVGSNG[Hyp]-NH2 (disulfide 2-7 (inferred); not fully specified; ends not checked) [SEQ ID NO: 61]
2980 | 0.013 | GCRFGTCTVQRLAHQIYQFTDKDKDNVAPRTNVGPQG[Hyp]-NH2 (disulfide 2-7 (inferred); ends not checked) [SEQ ID NO: 70]
> 5000 | 0.013 | KCNTATCTVQRLAHQIYQFTDKDKDNVAPPTNVGSNG[Hyp]-NH2 (disulfide 2-7 (inferred); ends not checked) [SEQ ID NO: 75]
> 5000 | 0.011 | {C20 diacid-γGlu}-KCNTSTCTVQRLAHQIYQFTDKDKDNVAPPTNVGSNG[Hyp]-NH2 (disulfide 2-7 (inferred); ends not checked) [SEQ ID NO: 50]
> 5000 | 0.011 | KCNTATCTVQRLAHQIYQFTDKDKDNVAAPTNVGSNG[Hyp]-NH2 (disulfide 2-7 (inferred); ends not checked) [SEQ ID NO: 53]
